From article PMC4265155, “A highly charged region in the middle domain of plant endoplasmic reticulum (ER)-localized heat-shock protein 90 is required for resistance to tunicamycin or high calcium-induced ER stresses” (Journal of Experimental Botany, 2014)

B1: HSP90.7 (AtHSP90.7; mature form R73–L823) (Arabidopsis thaliana) (protein)
chain: RSNAEKFEFQAEVSRLMDIIINSLYSNKDIFLRELISNASDALDKIRFLALTDKDVLGEGDTAKLEIQIKLDKAKKILSIRDRGIGMTKEDLIKNLGTIAKSGTSAFVEKMQSSGDLNLIGQFGVGFYSAYLVADYIEVISKHNDDSQYVWESKANGKFAVSEDTWNEPLGRGTEIRLHLRDEAGEYLEESKLKELVKRYSEFINFPISLWASKEVETEVPVEEDESADEETETTSTEEEKEEDAEEEDGEKKQKTKKVKETVYEWELLNDVKAIWLRSPKEVTEEEYTKFYHSLSKDFTDEKPMAWSHFNAEGDVEFKAVLYVPPKAPHDLYESYYNSNKANLKLYVRRVFISDEFDELLPKYLSFLKGLVDSDTLPLNVSREMLQQHSSLKTIKKKLIRKALDMIRKLAEEDPDEIHDDEKKDVEKSGENDEKKGQYTKFWNEFGKSVKLGIIEDAANRNRLAKLLRFETTKSDGKLTSLDQYIKRMKKSQKDIFYITGSSKEQLEKSPFLERLIKKGYEVIFFTDPVDEYLMQYLMDYEDKKFQNVSKEGLKVGKDSKDKELKEAFKELTKWWKGNLASENVDDVKISNRLADTPCVVVTSKFGWSANMERIMQSQTLSDANKQAYMRGKRVLEINPRHPIIKELKDRIASDPEDESVKETAQLMYQTALIESGFILTDPKDFAARIYNSVKSGLNISPDAVADEEIEAAEEPETSEATETKSDDLAGGLNIEAEPVEQQEENTKDEL
notes: predicted mature form R73-L823, signal peptide removed, vector p11, E. coli BL21(DE3)-pRIL, His6-tag cut with TEV protease, size-exclusion purified
B2: HSP90.7 (AtHSP90.7; mature form R73–L823) (Arabidopsis thaliana; DEL488-509) (protein)
chain: RSNAEKFEFQAEVSRLMDIIINSLYSNKDIFLRELISNASDALDKIRFLALTDKDVLGEGDTAKLEIQIKLDKAKKILSIRDRGIGMTKEDLIKNLGTIAKSGTSAFVEKMQSSGDLNLIGQFGVGFYSAYLVADYIEVISKHNDDSQYVWESKANGKFAVSEDTWNEPLGRGTEIRLHLRDEAGEYLEESKLKELVKRYSEFINFPISLWASKEVETEVPVEEDESADEETETTSTEEEKEEDAEEEDGEKKQKTKKVKETVYEWELLNDVKAIWLRSPKEVTEEEYTKFYHSLSKDFTDEKPMAWSHFNAEGDVEFKAVLYVPPKAPHDLYESYYNSNKANLKLYVRRVFISDEFDELLPKYLSFLKGLVDSDTLPLNVSREMLQQHSSLKTIKKKLIRKALDMIRKLAEEDPQYTKFWNEFGKSVKLGIIEDAANRNRLAKLLRFETTKSDGKLTSLDQYIKRMKKSQKDIFYITGSSKEQLEKSPFLERLIKKGYEVIFFTDPVDEYLMQYLMDYEDKKFQNVSKEGLKVGKDSKDKELKEAFKELTKWWKGNLASENVDDVKISNRLADTPCVVVTSKFGWSANMERIMQSQTLSDANKQAYMRGKRVLEINPRHPIIKELKDRIASDPEDESVKETAQLMYQTALIESGFILTDPKDFAARIYNSVKSGLNISPDAVADEEIEAAEEPETSEATETKSDDLAGGLNIEAEPVEQQEENTKDEL
notes: as for B1

Substrate: Nc1ncnc2c1ncn2[C@@H]1O[C@H](COP(=O)(O)OP(=O)(O)OP(=O)(O)O)[C@@H](O)[C@H]1O
Test: NADH-coupled ATPase assay (pyruvate kinase / lactate dehydrogenase)
Type: biochemical, Arabidopsis thaliana
Conditions: geldanamycin-sensitive activity, 25 mM HEPES pH 7.5, 5 mM MgCl2, 400 mM KCl, 0.03% Tween 20, 10% glycerol
Source text: NADH-coupled ATPase assay (pyruvate kinase / lactate dehydrogenase) on HSP90.7 (AtHSP90.7; mature form R73–L823)

[1] = HSP90.7^Δ22 (D488–G509 deleted by SpeI cleavage and religation; a SpeI-site scar may remain)

Protein | Km | kcat | kcat/Km | Km [1] | kcat [1] | kcat/Km [1]
B1 | 770 ± 180 µM | 0.0377 ± 0.00283 s⁻¹ | 49 ± 15.2 M⁻¹ s⁻¹ | – | – | –
B2 | – | – | – | 440 ± 110 µM | 0.039 ± 0.0025 s⁻¹ | 89 ± 27.8 M⁻¹ s⁻¹
